Measured values published in article PMC4465127.

Target: LIN-3^EGF (the purified EGF domain from LIN-3) (C. elegans)
Test: SPR; Biacore 3000; LIN-3 amine-coupled on CM5 chip, sLET-23 injected; steady state, single-site model; 10 mM Hepes pH 8.0, 150 mM NaCl, 3 mM EDTA, 0.005% P-20, room temperature

B1: LET-23 extracellular region (sLET-23) (domain or fragment)
chain: FGNSNAQLWKRCVSPQDCLCSGTTNGISRYGTGNILEDLETMYRGCRRVYGNLEITWIEANEIKKWRESTNSTVDPKNEDSPLKSINFFDNLEEIRGSLIIYRANIQKISFPRLRVIYGDEVFHDNALYIHKNDKVHEVVMRELRVIRNGSVTIQDNPKMCYIGDKIDWKELLYDPDVQKVETTNSHQHCYQNGKSMAKCHESCNDKCWGSGDNDCQRVYRSVCPKSCSQCFYSNSTSSYECCDSACLGGCTGHGPKNCIACSKYELDGICIETCPSRKIFNHKTGRLVFNPDGRYQNGNHCVKECPPELLIENDVCVRHCSDGHHYDATKDVRECEKCRSSSCPKICTVDGHLTNETLKNLEGCEQIDGHLIIEHAFTYEQLKVLETVKIVSEYITIVQQNFYDLKFLKNLQIIEGRKLHNVRWALAIYQCDDLEELSLNSLKLIKTGAVLIMKNHRLCYVSKIDWSSIITSKGKDNKPSLAIAENRDSKLCETEQRVCDKNCNKRGCWGKEPEDCLECKTWKSVGTCVEKCDTKGFLRNQTSMKCERCSPECETCNGLGELDCLTCRHKTLYNSDFGNRMECVHDCPVSHFPTQKNVCEKCHPTCYDNGCTGPDSNLGYGGCKQCKYAVKYENDTIFCLQSSGMNNVCVENDLPNYYISTYDTEGVIETHCEKCSISCKTCSSAGRNVVQNKCVCKHVEYQPNPSERICMDQCPVNSFMVPDTNNTVCKKCHHECDQNYHCANGQSTGCQKCKNFTVFKGDIAQCVSECPKNLPFSNPANGECLDYDIASRQRKTRM
**Q.** B1 was tested. Which Kd did it give?
**A.** 2 to 4 µM
